Series [1] concerns the molecule itself. The series is described as follows: SEC; analytical SEC (Superdex 200 5/150), 20 µM protein with 200 µM GDP, 300 µM AlCl3, 10 mM NaF (GDP•AlFx); 50 mM Tris-HCl pH 7.9, 150 mM NaCl, 5 mM MgCl2. A general note: SEC sorts molecules by how far they enter the pores of the column.
Series [2] concerns the molecule itself. The series is described as follows: specific GDPase activity against protein concentration (HPLC), quadratic fit; apparent Kd of dimer formation; isolated LG domains, 1 mM GDP, 37 °C, 50 mM Tris-HCl pH 7.9, 150 mM NaCl, 5 mM MgCl2; dimer to monomers.

A word on the stoichiometry N: it is a count of units in the complex or per binding partner.

B1: isolated LG domain of GBP1, wild-type (domain or fragment, human, UniProt P32455 1-317, looked up)
chain: MASEIHMTGPMCLIENTNGRLMANPEALKILSAITQPMVVVAIVGLYRTGKSYLMNKLAGKKKGFSLGSTVQSHTKGIWMWCVPHPKKPGHILVLLDTEGLGDVEKGDNQNDSWIFALAVLLSSTFVYNSIGTINQQAMDQLYYVTELTHRIRSKSSPDENENEVEDSADFVSFFPDFVWTLRDFSLDLEADGQPLTPDEYLTYSLKLKKGTSQKDETFNLPRLCIRKFFPKKKCFVFDRPVHRRKLAQLEKLQDEELDPEFVQQVADFCSYIFSNSKTKTLSGGIQVNGPRLESLVLTYVNAISSGDLPCMENAVL
notes: large GTPase (LG) domain of GBP1, human; stop codon in place of A318 (primer A318*); also called wild-type LG domain; WT; source: E. coli, pQE-80L, purified (Ni Sepharose HP, Superdex 200)
For B1, the “stoichiometry N” value in series [1] was 2. Further, the Kd in series [2] came to 110 µM.

(Values after article PMC10897159, “Structural insights into the activation mechanism of antimicrobial GBP1” (The EMBO Journal, 2024).)
